What was measured:
YEATS4 [1] = assay: Co-immunoprecipitation, cell fractionation and immunostaining in macrophages and HEK293T cells; format: cell-based; details: macrophages and HEK293T cells, 1 μg/ml rRv3364c, 15 to 30 min
YEATS4 [2] = molecular target: T1, YEATS4 (Mus musculus, UniProt Q9CR11); assay: as above; format: cell-based; details: cell fractionation (Raw264.7) and immunostaining (BMDM), 1 μg/ml rRv3364c, time course
T1 construct: harvesting BMDM cells with different treatment times of 1 μg/ml rRv3364c, performing immunoprecipitation (IP) with αHis; endogenous in cells; host or cells: mouse BMDM, Raw264.7

macrophages (BMDM) = format: cell-based, mouse; details: 1 μg/ml, 18 hours, ELISA
SNX9 [3] = assay: Co-immunoprecipitation, cell fractionation and immunostaining in macrophages and HEK293T cells; format: cell-based; details: macrophages and HEK293T cells, 1 μg/ml rRv3364c, 15 to 30 min
SNX9 [4] = molecular target: T2, SNX9 (Mus musculus, UniProt Q91VH2); assay: as above; format: cell-based; details: cell fractionation (Raw264.7) and immunostaining (BMDM), 1 μg/ml rRv3364c, time course
T2 construct: harvesting BMDM cells with different treatment times of 1 μg/ml rRv3364c, performing immunoprecipitation (IP) with αHis; endogenous in cells; host or cells: mouse BMDM, Raw264.7

cathepsin G = molecular target: T3, cathepsin G (Homo sapiens, UniProt P08311); details: membrane protein of macrophages; cited from earlier work
T3 sequence (P08311 21-244): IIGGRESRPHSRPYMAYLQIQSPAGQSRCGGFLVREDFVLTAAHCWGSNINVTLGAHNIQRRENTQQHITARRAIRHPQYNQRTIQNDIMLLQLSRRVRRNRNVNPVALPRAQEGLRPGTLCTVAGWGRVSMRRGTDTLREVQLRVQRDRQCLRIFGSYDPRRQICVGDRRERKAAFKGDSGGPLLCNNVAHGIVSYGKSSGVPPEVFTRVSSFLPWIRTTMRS

SNX9 (sorting nexin 9) = molecular target: T4, SNX9 (sorting nexin 9) (Homo sapiens, UniProt Q9Y5X1); assay: HuProt human proteome microarray, binding of rRv3364c; details: cell-free protein microarray, signal at 532 nm
T4 construct: containing 20,000 or more full-length recombinant human proteins; purchased CDI Labs, USA (HuProt Human Proteome Microarray)
Description: (§1) FIGS. 1A and 1B illustrate results of screening candidate proteins predicted to potentially interact with rRv3364c in a CDI HuProt™ Human Proteome Microarray. Each figure illustrates a section of a protein array showing a positive response. A signal at 532 nm was stronger in an rRv3364c group than in a control group;
(§2) In order to identify a protein binding to rRv3364c, human protein microarrays (CDI Labs, USA) containing 20,000 or more full-length recombinant human proteins were used. Specifically, the protein microarrays were treated with a blocking buffer (2% BSA in PBS, 0.1% […]) for 2 hours. 3 μg of […] on the microarrays at 4° C. for 8 hours. Thereafter, each array was treated with 1 μg of streptavidin fluorescence Alexa Fluor 532 nm at 4° C. for 1 hour. Microarray results were detected using a GenePix 4100A microarray laser scanner (Molecular Devices, USA).
(§3) A customized protein binding assay was used to identify interacting proteins, and candidate proteins capable of potentially interacting with rRv3364c were selected. […] In FIG. 1A, an affinity score (A score) is a normalized signal intensity of two overlapping points, and a specificity score (B score) is a difference between the affinity score of the protein and the protein ranked next thereto.

[5] = molecular target: T5, YEATS4 (YEATS domain-containing protein 4) (Homo sapiens, UniProt O95619); assay: as above; details: cell-free protein microarray, signal at 532 nm
T5 construct: containing 20,000 or more full-length recombinant human proteins; purchased CDI Labs, USA (HuProt Human Proteome Microarray)
Description: as §1, §2, §3

[6] = molecular target: T6, ZBTB46 (zinc finger and BTB domain-containing 46) (Homo sapiens, UniProt Q86UZ6); assay: as above; details: cell-free protein microarray, signal at 532 nm
T6 construct: containing 20,000 or more full-length recombinant human proteins; purchased CDI Labs, USA (HuProt Human Proteome Microarray)
T6 sequence (Q86UZ6 1-589): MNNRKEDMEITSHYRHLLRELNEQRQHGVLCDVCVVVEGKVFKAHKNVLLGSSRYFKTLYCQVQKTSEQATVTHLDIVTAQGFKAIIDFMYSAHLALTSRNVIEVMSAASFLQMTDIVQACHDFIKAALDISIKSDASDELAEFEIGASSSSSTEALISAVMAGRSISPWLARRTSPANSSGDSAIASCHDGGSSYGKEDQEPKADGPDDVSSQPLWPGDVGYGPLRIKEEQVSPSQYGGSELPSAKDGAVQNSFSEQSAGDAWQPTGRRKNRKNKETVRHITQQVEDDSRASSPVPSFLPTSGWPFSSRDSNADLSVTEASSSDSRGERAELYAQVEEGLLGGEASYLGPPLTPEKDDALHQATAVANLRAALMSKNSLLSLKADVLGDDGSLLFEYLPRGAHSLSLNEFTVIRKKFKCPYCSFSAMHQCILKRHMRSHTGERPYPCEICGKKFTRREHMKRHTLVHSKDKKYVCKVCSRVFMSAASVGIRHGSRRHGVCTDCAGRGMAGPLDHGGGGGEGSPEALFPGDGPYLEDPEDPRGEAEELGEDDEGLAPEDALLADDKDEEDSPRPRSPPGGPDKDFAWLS
Description: as §1, §2, §3

[7] = molecular target: T7, EGFLAM (EGF-like Fibronectin type III and Laminin G domains) (Homo sapiens, UniProt Q63HQ2); assay: as above; details: cell-free protein microarray, signal at 532 nm
T7 construct: containing 20,000 or more full-length recombinant human proteins; purchased CDI Labs, USA (HuProt Human Proteome Microarray)
T7 sequence (Q63HQ2 25-1017): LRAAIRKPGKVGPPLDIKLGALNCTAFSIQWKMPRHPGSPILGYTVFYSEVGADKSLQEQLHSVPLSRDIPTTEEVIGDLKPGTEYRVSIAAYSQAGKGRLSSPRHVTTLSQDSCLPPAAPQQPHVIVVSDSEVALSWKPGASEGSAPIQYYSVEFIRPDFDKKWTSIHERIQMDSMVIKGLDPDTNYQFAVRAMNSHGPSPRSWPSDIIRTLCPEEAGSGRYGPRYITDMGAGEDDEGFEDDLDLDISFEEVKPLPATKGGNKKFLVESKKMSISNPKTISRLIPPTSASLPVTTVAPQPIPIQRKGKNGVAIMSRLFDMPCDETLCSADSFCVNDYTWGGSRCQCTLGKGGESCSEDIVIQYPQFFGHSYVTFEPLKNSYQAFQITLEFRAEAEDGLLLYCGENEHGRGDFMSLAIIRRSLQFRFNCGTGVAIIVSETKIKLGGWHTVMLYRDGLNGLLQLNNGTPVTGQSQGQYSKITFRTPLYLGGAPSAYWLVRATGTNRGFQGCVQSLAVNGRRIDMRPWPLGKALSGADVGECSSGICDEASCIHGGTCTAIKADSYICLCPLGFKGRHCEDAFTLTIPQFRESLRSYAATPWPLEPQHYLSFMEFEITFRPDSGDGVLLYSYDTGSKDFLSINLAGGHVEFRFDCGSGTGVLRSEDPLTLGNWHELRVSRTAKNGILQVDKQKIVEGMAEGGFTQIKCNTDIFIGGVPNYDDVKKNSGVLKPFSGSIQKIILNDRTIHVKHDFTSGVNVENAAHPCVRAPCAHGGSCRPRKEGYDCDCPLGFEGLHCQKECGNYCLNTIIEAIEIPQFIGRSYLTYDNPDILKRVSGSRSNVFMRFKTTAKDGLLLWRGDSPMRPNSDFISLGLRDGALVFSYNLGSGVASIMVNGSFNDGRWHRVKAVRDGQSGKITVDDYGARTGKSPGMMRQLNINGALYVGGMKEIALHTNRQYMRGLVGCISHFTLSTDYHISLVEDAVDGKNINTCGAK
Description: as §1, §2, §3

T2 sequence (Q91VH2 whole entry): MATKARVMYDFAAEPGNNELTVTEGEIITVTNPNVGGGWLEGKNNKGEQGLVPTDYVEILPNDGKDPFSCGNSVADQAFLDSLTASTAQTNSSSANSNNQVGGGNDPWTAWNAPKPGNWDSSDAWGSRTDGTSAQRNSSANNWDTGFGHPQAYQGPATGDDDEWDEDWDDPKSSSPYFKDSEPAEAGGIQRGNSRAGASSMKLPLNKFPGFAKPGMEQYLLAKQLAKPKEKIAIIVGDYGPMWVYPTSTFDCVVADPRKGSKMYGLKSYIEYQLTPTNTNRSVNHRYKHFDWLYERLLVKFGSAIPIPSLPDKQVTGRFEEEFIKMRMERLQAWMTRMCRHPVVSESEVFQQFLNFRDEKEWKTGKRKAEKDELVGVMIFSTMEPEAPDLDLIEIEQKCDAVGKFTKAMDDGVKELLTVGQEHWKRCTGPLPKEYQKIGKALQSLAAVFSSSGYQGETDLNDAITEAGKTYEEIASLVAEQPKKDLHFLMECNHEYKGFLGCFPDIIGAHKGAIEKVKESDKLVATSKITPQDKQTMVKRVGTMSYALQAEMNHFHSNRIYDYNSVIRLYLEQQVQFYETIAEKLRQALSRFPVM
T1 sequence (Q9CR11 whole entry): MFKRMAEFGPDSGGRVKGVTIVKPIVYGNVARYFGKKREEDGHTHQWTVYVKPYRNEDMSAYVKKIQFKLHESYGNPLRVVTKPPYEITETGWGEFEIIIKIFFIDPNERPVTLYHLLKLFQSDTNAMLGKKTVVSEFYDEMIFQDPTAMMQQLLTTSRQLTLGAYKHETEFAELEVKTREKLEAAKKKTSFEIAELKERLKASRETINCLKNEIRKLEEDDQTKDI
T4 sequence (Q9Y5X1 whole entry): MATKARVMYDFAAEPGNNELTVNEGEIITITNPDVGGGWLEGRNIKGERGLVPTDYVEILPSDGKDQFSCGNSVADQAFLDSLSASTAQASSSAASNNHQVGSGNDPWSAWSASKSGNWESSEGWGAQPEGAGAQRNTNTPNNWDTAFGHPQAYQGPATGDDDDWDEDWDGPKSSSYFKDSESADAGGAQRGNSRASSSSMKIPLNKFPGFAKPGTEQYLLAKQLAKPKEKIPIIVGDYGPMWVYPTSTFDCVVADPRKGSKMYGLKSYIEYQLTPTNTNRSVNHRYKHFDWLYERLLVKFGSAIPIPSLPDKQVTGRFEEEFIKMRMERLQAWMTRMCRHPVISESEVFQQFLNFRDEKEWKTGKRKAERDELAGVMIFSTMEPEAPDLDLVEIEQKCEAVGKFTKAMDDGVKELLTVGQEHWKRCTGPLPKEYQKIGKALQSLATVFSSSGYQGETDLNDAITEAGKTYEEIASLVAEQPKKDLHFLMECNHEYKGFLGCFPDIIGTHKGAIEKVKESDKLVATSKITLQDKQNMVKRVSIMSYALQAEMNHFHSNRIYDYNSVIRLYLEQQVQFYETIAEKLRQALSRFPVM
T5 sequence (O95619 whole entry, the tested form may be a part): as the sequence (Q9CR11 whole entry) above, with T224A counted along it

rRv3364c: recombinant Rv3364c protein of MTB H37Rv with N-terminal 6xHis tag, expressed in E. coli, 13 kDa
interaction with endogenous and extrinsic YEATS4 (co-immunoprecipitation) (YEATS4 [1]): strongly interacted
intracellular position of binding to YEATS4 (YEATS4 [2]): migrated to the nucleus to bind to YEATS4
production of pro-inflammatory cytokines (TNF-α, IL-6, and IL-12p40) and anti-inflammatory cytokines (IL-10) (macrophages (BMDM); BMDM, through TLR4/MyD88/TRAF6/TBK1-IRAK1 pathway): promoted the production
production of rRv3364c-induced inflammatory cytokines in SNX9−/− compared to SNX9+/+ macrophages (macrophages (BMDM); SNX9−/− BMDM): significantly reduced
interaction with endogenous and extrinsic SNX9 (co-immunoprecipitation) (SNX9 [3]): strongly interacted
intracellular position of binding to SNX9 (SNX9 [4]): initially bound to SNC9 in the cytoplasm
enzymatic activity of cathepsin G (cathepsin G): inhibit its enzymatic activity
affinity with rRv3364c (SNX9 (sorting nexin 9)): high affinity
affinity with rRv3364c [5]: high affinity
affinity with rRv3364c [6]: high affinity
affinity with rRv3364c [7]: high affinity
rRv3364c-induced cytotoxicity (macrophages): not observed

Reference: US20230203107A1, “PEPTIDE FOR TREATING SEPSIS DERIVED FROM RV3364C PROTEIN OF MYCOBACTERIUM TUBERCULOSIS” (priority 2021, published 2023)
